Fewer inactive variants are shown than the library holds.
B1: TPR 5TU (parent)
chain: GGAUCUUCUCGAUCUAACAAAAAAGACAAAUCUGCCACAAAGCUUGAGAGCAUCUUCGGAUGCAGAGGCGGCAGCCUUCGGUGGCGCGAUAGCGCCAACGUUCUCAACUAUGACACGCAAAACGCGUGCUCCGUUGAAUGGAGUUUAUCAUG

Variants of: B1
Assay: polymerase ribozyme fitness, log enrichment relative to wild type (log ratio); higher = more active; in vitro selection for triplet polymerase activity
Outline: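 Mutant libraries of each subunit of a heterodimeric triplet polymerase ribozyme were built by PCR and transcribed. Each library went through one round of in vitro selection in triplicate: annealing with biotinylated primer, partner subunit and triplets, frozen incubation at −7 °C, gel excision of extended constructs, streptavidin-bead capture and RT-PCR. Input and output libraries were Illumina-sequenced; only genotypes with ≥10 input reads and ≥1 read per output were kept. Fitness is log2(genotype enrichment/wild-type enrichment), using inverse-variance-weighted replicate averages.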

Variant | polymerase ribozyme fitness (log ratio)
A16U A30U C87A | ≤ -4.2
A17U C54U | -0.241
U109C G117A U146A | -3.86
U6G A26U A37C G50C U53A C57A U82G C103G | ≤ -4.2
C14U U15C A16U A19G A30U A39C G48U G50A G70U A113U G141U | ≤ -4.2
U6G C57A U102G | -1.76
A20U C69A | -2.18
A12G G84C | -1.21
U56A A121C C149G | -3.14
C54G G80C A89G C93A | ≤ -4.2
C93U G133C U134A G140A | ≤ -4.2
G11C C38G C87A C95U G100U C105U C118A C129G G133U | ≤ -4.2
A20U G92U U104G | -1.82
C99U G140U | -3.37
A21C G136A | 0.615
A19U A30U C72G C96U A106G A122C G140U | ≤ -4.2
A37U G81U C85U A137C | ≤ -4.2
A49U G92U | -0.559
G84A A115U U134G | -4.01
U33G A47G G81A | -4
G59C U148A | -2.88
U31G A60C | -1.23
A52G G84U C96U U139C U144C | ≤ -4.2
G58C U77G C87G G152A | ≤ -4.2

Variant | polymerase ribozyme fitness (log ratio)
G86A C87U | -3.65
G46A G67U C87A C103G U111C G140A | ≤ -4.2
A29C G94C A97G A98G U104G | ≤ -4.2
U53C C116G | 0.204
U55A G59U C87U | -2.31
G50U G81A C93G | -3.96
A137C U144A U146A | -3.95
A30C C75G G81U C87U A120U | -4.16
A73G C93G | -2.73
A41C | -0.379
C32U C96U C149U U151A | ≤ -4.2
A19C G62A C85A A137U U151A | ≤ -4.2
A16U C38G U61A C75G G80A G100A G136U | ≤ -4.2
C54A U61C G65A G88U C95G C103G A115C A119C U135G U144G | ≤ -4.2
C43A C93G G133A | ≤ -4.2
A22U G59A U101A | 0.375
C93A | -2.17
A17G A21U A49C G59C G74U C85G C116U U134A | ≤ -4.2
A60U C99A G140U | ≤ -4.2
G34A G88C A115C A137G | ≤ -4.2
C85A G86U A110C C131A | ≤ -4.2
A19C U82G U109G C116A | -0.158
A16U U56A A60U G141U | -2.12
G68A C85U A110G | ≤ -4.2

Variant | polymerase ribozyme fitness (log ratio)
G50A U78A G84A G100C A137G | ≤ -4.2
G84U G141C U144A | ≤ -4.2
C14U A16U G81A A147U | -1.35
A17C U53G G62U G117U | -2.27
A21C A24C A52C C79A C93U A150U G152C | ≤ -4.2
A28C G68A G92C A122G C132G | -3.62
G58C C93U A110G | -3.82
C51G G92C | -2.71
C32A A37G U61G G94U G124U | ≤ -4.2
A16G A40U G59C U104A | -1.85
A20U U78A C95U | ≤ -4.2
A3C C5G G92U U134C U135A | -1.39
G11C A37C U82G C85G C105U C116G | ≤ -4.2
A120G U134G U148G | -3.72
A41U U77A | ≤ -4.2
U61A C105G A121U | ≤ -4.2
U55A G68A C76A C96G C114G G133A A138U | ≤ -4.2
C10U A23G C36A G58U A113U | ≤ -4.2
G58U C75G G81A G92U A142G U144A | ≤ -4.2
A47G G50U C85G | -3.89
U56C G80U | -0.2
A40C G59A C85A A89C | -2.83
G50A C118A A119U G143A | -2.71
C96U C114U A147C | -4.07

Variant | polymerase ribozyme fitness (log ratio)
A20G A91G | -2.54
A19U A52C U55A A60C C76U G83A C85U C129G A150G | ≤ -4.2
C27G U56A C99A | ≤ -4.2
C85A A106C G140C | ≤ -4.2
G80C U82G C87U C99G | 0.273
G70A G86A U90G C93G A110U C114U U134A | ≤ -4.2
G126A U148C | -2.93
C8U A26G U56A C76G C105U A106C C123U | ≤ -4.2
C38U C63U | 0.178
A122U G136U | -2.24
U31A A37U U90G C93U C125G G141A | ≤ -4.2
G42C G133C G143C | ≤ -4.2
U7A A40C C54A G59C C87U | ≤ -4.2
A17C G62A C85A | -1.77
C18U U31C A89C C93A G140U | ≤ -4.2
U7A G62C | ≤ -4.2
C14G C32G C76A U139A | ≤ -4.2
A19C G58C G88U A98G C103G | ≤ -4.2
U13A A113U | -2.5
A28U C38U G59U A60G G94A C95U C103U | ≤ -4.2
C69U A97G G141A | -0.875
U44A A137U | -3.68
C54U G59A A106G | 0.342
A26U C51U A89G C105G U134G U144A | ≤ -4.2

Variant | polymerase ribozyme fitness (log ratio)
G62A C76U | -1.26
A22G C38G C96U A110U U111A | ≤ -4.2
A3C C10A U82C | -2.75
C8A C85A C87A G124A | ≤ -4.2
A52C G92U | -1.12
A19U C95U C99A U145A | -2.13
A39U C54U C76A A91C U139G | ≤ -4.2
A21U C116U | 0.00754
C18U C32G C51U C87G | ≤ -4.2
U7G C51U G88C G92U C95U G100U | ≤ -4.2
A16C C96G G140U | ≤ -4.2
A40U U45G | -0.54
C32U A66G A98U | -4.11
G126A A150C | -4.16
C85U A106U A113C A115U | ≤ -4.2
U6G C76U C93G | -2.95
G25U C43U U61A G84U C85A A89U C93A C103A G141U | ≤ -4.2
C36U G65C U102G G140C C149G | ≤ -4.2
C35U A52C U90A C95U A122C | ≤ -4.2
A107G C125A | -3.63
C105G C132A | -3.96
A41G C57U A89U | 0.785
C8G G70C G80A A91U U104C A120U | ≤ -4.2
C14G C54A C57A G62A U78A C85U G88A A115U | ≤ -4.2

Variant | polymerase ribozyme fitness (log ratio)
C10U U33A A49G C76U G81A A98G U102C A137C G140U | ≤ -4.2
C103A A120U G124A C125U | -2.03
U7G C93U A98G G141A | -3.82
G92A C96A | -3.11
U102G A121G | -2.33
C93G U146G C149U | -3.51
A47U G50A C87G C105G C114U C129U | ≤ -4.2
G92A C103G C129G U134A | ≤ -4.2
A30G C63A C99U | ≤ -4.2
U31C G34A U56G A60G A73G G84A A89U | ≤ -4.2
A41C U55G G81A C85U | -0.432
U82G G133C G140A | -3.39
A47C U148G | -3.89
A19C C35U A52C U53A C79A A97U A98G C118A U139G A147G | ≤ -4.2
G59U C69G C95U C116G | -1.81
C87A | ≤ -4.2
A12U U53A | -1.75
U102G U146G | -4.17
A16U C93G C105G | ≤ -4.2
C27U C131U | 0.137
C118U A147C | 0.751
C75U G80A C85A U146C | -3.11
U135G A142C | -2.54
U4A G94U U102C | -3.03

Variant | polymerase ribozyme fitness (log ratio)
C10U A17G A28C G42A C85U A89G C93U U145G | ≤ -4.2
C14A U61A | -3.22
G83A C116U | -0.551
C35U C114U | -2.28
G42U G62U C63A C69U C99A C103G C108A | ≤ -4.2
G58A G141C | -0.279
C69A A89U | -1.41
A22U U82C C93G C103G U151G | ≤ -4.2
U55G U90G C123G U134A | ≤ -4.2
C5G C85G | -1.46
G46C G83C G88C A97G | ≤ -4.2
U13C A121U A142C | -2.44
A17U A40U A113C A115C C131U | ≤ -4.2
A16C C75A C76A C125G | ≤ -4.2
U6A A12U G50A C149A | ≤ -4.2
U4A A16U A29U U55G C72G U127A | ≤ -4.2
C35U U55G A60C A91U A119G A121U C149G | ≤ -4.2
A73G C149A | ≤ -4.2
G46C | -0.9
C51A A60G G124U | -1.75
U53A G68U A73G U134G A138C | ≤ -4.2
A19U C51U A91U G94A G133A A137C | ≤ -4.2
A21G A52G U53A C54U C87U C95A G136A G140U | ≤ -4.2
